Experimental data taken from patent publication US11278600B2, “Human alpha-galactosidase variants” (Codexis, Inc., priority 2014, dated 2022).

Tests used:
Format in all cases: biochemical
[1] = HTP-analysis of supernatants pretreated with acid (MUGal hydrolysis); conditions: activity of the variant/activity of Rd4BB (SEQ ID NO: 15); challenge at pH 3.7
In short: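 Fluorescence of MUGal hydrolysis (Ex. 355 nm, Em. 448 nm) is read after sodium carbonate quench. The enzyme source is INVSc1 yeast culture supernatant, first exposed to pH 3.3-4.3 McIlvaine buffer at 37° C. for 1-3 h, then reacted at pH 4.8 for 30-180 minutes.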

[2] = HTP-analysis of supernatants pretreated with base (MUGal hydrolysis); conditions: activity of the variant/activity of Rd4BB (SEQ ID NO: 15); challenge at pH 9.65
In short: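 Fluorescence of released 4-MU (Ex 355 nm, Em 448 nm) after carbonate quench reports MUGal hydrolysis by GLA variants secreted from INVSc1 yeast. Before the acidic (pH 4.3-4.8) 30-180 min reaction at 37° C, supernatants had been pre-incubated at pH 7.0-9.7 for 1-18 h at 37° C.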

[3] = HTP-analysis of yeast culture supernatants, no challenge (MUGal hydrolysis); conditions: activity of the variant/activity of Rd4BB (SEQ ID NO: 15)
In short: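 Activity read as 4-methylumbelliferyl α-D-galactopyranoside hydrolysis: fluorescence (355/448 nm) after sodium carbonate stop, following 30-180 min at 37° C with 2 mM MUGal stock at pH 4.6–4.8. Enzyme source is unchallenged culture supernatant of INVSc1 yeast expressing GLA variants, grown 66-84 h at 30° C.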

Molecule | Relative Activity of GLA Variants After Challenge at pH 3.7 [1] | Relative Activity of GLA Variants After Challenge at pH 9.65 [2] | Relative Activity of GLA Variants After No Challenge (NC) [3]
465 (protein, Synthetic Polypeptide sequence of Variant No. 465 of mature Human GLA) LDNGLARTPTMGWLHWERFMCNLDCQEEPDSCISEKLFMEMAERMVSEGWKDAGYEYLCIDDCWMAPQRDSEGRLQADPQRFPHGIRQLANYVHSKGLKLGIYADVGNKTCAGFPGSFGYYDIDAQTFADWGVDLLKFDGCYCDSLENLADGYKHMSLALNRTGRSIVYSCEWPLYMWPFQKPNYTEIRQYCNHWRNFADIDDSWKSIKSILDWTSRNQERIVDVAGPGGWNDPDMLVIGNFGLSWDQQVTQMALWAIMAAPLFMSNDLRHISPQAKALLQDKDVIAINQDPLGKQGYQLRKGDNFEVWERPLSGDAWAVAIINRQEIGGPRSYTIPVASLGKGVACNPACFITQLLPVKRQLGFYNWTSRLKSHINPTGTVLLQLENTQQMSLKDLL | + (0.5 to 1.5 relative activity over Rd4BB (SEQ ID NO: 15)) | + (0.5 to 1.5 relative activity over Rd4BB (SEQ ID NO: 15)) | + (0.5 to 1.5 relative activity over Rd4BB (SEQ ID NO: 15))
469 (protein, Synthetic Polypeptide sequence of Variant No. 469 of mature Human GLA) LDNGLARTPTMGWLHWERFMCNLDCQEEPDSCISEKLFMEMAERMVSEGWKDAGYEYLCIDDCWMAPQRDSEGRLQADPQRFPHGIRQLANYVHSKGLKLGIYADVGNKTCAGFPGSFGYYDIDAQTFADWGVDLLKFDGCYCDSLENLADGYKHMSLALNRTGRSIVYSCEWPLYMWPFQKPNYTEIRQYCNHWRNFADIDDSWKSIKSILDWTSRNQERIVDVAGPGGWNDPDMLVIGNFGLSWDQQVTQMALWAIMAAPLFMSNDLRHISPQAKALLQDKDVIAINQDPLGKQGYQLRKGDNFEVWERPLSGDAWAVAIINRQEIGGPRSYTIPVASLGKGVACNPACFITQLLPVKRQLGFYNWTSRLKSHINPTGTVLLILENTMQMSLKDLL | + (0.5 to 1.5 relative activity over Rd4BB (SEQ ID NO: 15)) | + (0.5 to 1.5 relative activity over Rd4BB (SEQ ID NO: 15)) | + (0.5 to 1.5 relative activity over Rd4BB (SEQ ID NO: 15))
468 (protein, Synthetic Polypeptide sequence of Variant No. 468 of mature Human GLA) LDNGLARTPTMGWLHWERFMCNLDCQEEPDSCISEKLFMEMAERMVSEGWKDAGYEYLCIDDCWMAPQRDSEGRLQADPQRFPHGIRQLANYVHSKGLKLGIYADVGNKTCAGFPGSFGYYDIDAQTFADWGVDLLKFDGCYCDSLENLADGYKHMSLALNRTGRSIVYSCEWPLYMWPFQKPNYTEIRQYCNHWRNFADIDDSWKSIKSILDWTSRNQERIVDVAGPGGWNDPDMLVIGNFGLSWDQQVTQMALWAIMAAPLFMSNDLRHISPQAKALLQDKDVIAINQDPLGKQGYQLRKGDNFEVWERPLSGDAWAVAIINRQEIGGPRSYTIPVASLGKGVACNPACFITQLLPVKRQLGFYNWTSRLKSHINPTGTVLLQLENQMQMSLKDLL | + (0.5 to 1.5 relative activity over Rd4BB (SEQ ID NO: 15)) | + (0.5 to 1.5 relative activity over Rd4BB (SEQ ID NO: 15)) | + (0.5 to 1.5 relative activity over Rd4BB (SEQ ID NO: 15))
466 (protein, Synthetic Polypeptide sequence of Variant No. 466 of mature Human GLA) LDNGLARTPTMGWLHWERFMCNLDCQEEPDSCISEKLFMEMAERMVSEGWKDAGYEYLCIDDCWMAPQRDSEGRLQADPQRFPHGIRQLANYVHSKGLKLGIYADVGNKTCAGFPGSFGYYDIDAQTFADWGVDLLKFDGCYCDSLENLADGYKHMSLALNRTGRSIVYSCEWPLYMWPFQKPNYTEIRQYCNHWRNFADIDDSWKSIKSILDWTSRNQERIVDVAGPGGWNDPDMLVIGNFGLSWDQQVTQMALWAIMAAPLFMSNDLRHISPQAKALLQDKDVIAINQDPLGKQGYQLRKGDNFEVWERPLSGDAWAVAIINRQEIGGPRSYTIPVASLGKGVACNPACFITQLLPVKRQLGFYNWTSRLKSHINPTGTVLLQLENTMQESLKDLL | + (0.5 to 1.5 relative activity over Rd4BB (SEQ ID NO: 15)) | + (0.5 to 1.5 relative activity over Rd4BB (SEQ ID NO: 15)) | + (0.5 to 1.5 relative activity over Rd4BB (SEQ ID NO: 15))
467 (protein, Synthetic Polypeptide sequence of Variant No. 467 of mature Human GLA) LDNGLARTPTMGWLHWERFMCNLDCQEEPDSCISEKLFMEMAERMVSEGWKDAGYEYLCIDDCWMAPQRDSEGRLQADPQRFPHGIRQLANYVHSKGLKLGIYADVGNKTCAGFPGSFGYYDIDAQTFADWGVDLLKFDGCYCDSLENLADGYKHMSLALNRTGRSIVYSCEWPLYMWPFQKPNYTEIRQYCNHWRNFADIDDSWKSIKSILDWTSRNQERIVDVAGPGGWNDPDMLVIGNFGLSWDQQVTQMALWAIMAAPLFMSNDLRHISPQAKALLQDKDVIAINQDPLGKQGYQLRKGDNFEVWERPLSGDAWAVAIINRQEIGGPRSYTIPVASLGKGVACNPACFITQLLPVKRQLGFYNWTSRLKSHINPTGTVLLQLENSMQMSLKDLL | + (0.5 to 1.5 relative activity over Rd4BB (SEQ ID NO: 15)) | + (0.5 to 1.5 relative activity over Rd4BB (SEQ ID NO: 15)) | + (0.5 to 1.5 relative activity over Rd4BB (SEQ ID NO: 15))
368 (protein, Synthetic Polypeptide sequence of Variant No. 368 of mature Human GLA) LDNGLARTPTMGWLHWERFMCNLDCQEEPDSCISEKLFMEMAEAMVSEGWKDAGYEYLCIDDCWMAPQRDSEGRLQADPQRFPHGIRQLANYVHSKGLKLGIYADVGNKTCAGFPGSFGYYDIDAQTFADWGVDLLKFDGCYCDSLENLADGYKHMSLALNRTGRSIVYSCEWPLYMWPFQKPNYTEIRQYCNHWRNFADIDDSWKSIKSILDWTSRNQERIVDVAGPGGWNDPDMLVIGNFGLSWDQQVTQMALWAIMAAPLFMSNDLRHISPQAKALLQDKDVIAINQDPLGKQGYQLRKGDNFEVWERPLSGDAWAVAIINRQEIGGPRSYTIPVASLGKGVACNPACFITQLLPVKRQLGFYNWTSRLKSHINPTGTVLLQLENTMQMSLKDLL | + (0.5 to 1.5 relative activity over Rd4BB (SEQ ID NO: 15)) | + (0.5 to 1.5 relative activity over Rd4BB (SEQ ID NO: 15)) | + (0.5 to 1.5 relative activity over Rd4BB (SEQ ID NO: 15))
